Test results as given in US20200087373A1 (UNIVERSITY OF COPENHAGEN, published 2020).
Values joined by “and” are separate entries in the source; they are usually repeats but may differ in a detail not shown here. Equal values may be shown once. Ends that are not written are not given here. * marks the point of attachment. C16 diacid = O=C(O)CCCCCCCCCCCCCCC(=O)*

Experiments:
[1] = target: T1, human GIP receptor (human, UniProt P48546 22-466); assay: 125I-hGIP(1-42) competition binding, COS-7 cells expressing human GIPR, with 2% HSA;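 also: nonspecific signal taken as radioligand bound to untransfected cells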
T1 construct: whole, on cells; Transiently transfected COS-7 cells expressing the human GIP receptor; also called hGIPR
T1 sequence (looked up): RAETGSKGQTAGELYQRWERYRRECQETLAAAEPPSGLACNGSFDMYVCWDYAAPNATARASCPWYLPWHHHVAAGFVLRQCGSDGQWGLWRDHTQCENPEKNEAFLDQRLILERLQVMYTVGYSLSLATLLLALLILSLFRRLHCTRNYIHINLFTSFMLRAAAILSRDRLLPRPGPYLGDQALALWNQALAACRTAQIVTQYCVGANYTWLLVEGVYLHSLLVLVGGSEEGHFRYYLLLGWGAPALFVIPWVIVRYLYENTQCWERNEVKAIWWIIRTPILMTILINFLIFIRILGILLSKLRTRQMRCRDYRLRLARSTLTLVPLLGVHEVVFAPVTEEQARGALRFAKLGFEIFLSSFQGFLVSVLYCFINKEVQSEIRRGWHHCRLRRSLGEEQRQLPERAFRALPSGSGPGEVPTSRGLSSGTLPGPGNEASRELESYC
Procedure: (§1) After incubation, the cells were washed twice in ice-cold binding buffer (+/−2% HSA) and lysed using 200 mM NaOH with 1% SDS for 30 min. Nonspecific binding was determined as the binding of radioactive ligand to untransfected cells.

[2] = target: T1, human GIP receptor; assay: cell-based or functional assay
[3] = target: T1, human GIP receptor; assay: ratio of Ki with 2% HSA to Ki without HSA, 125I-hGIP competition binding on hGIPR COS-7 cells;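 also: nonspecific binding was defined as radioligand signal on cells lacking the receptor transfection, with cell lysates measured after washes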
Procedure: as §1

[4] = target: T1, human GIP receptor; assay: 125I-hGIP(1-42) competition binding, COS-7 cells expressing human GIPR, without HSA;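 also: nonspecific binding defined as radioligand bound to cells lacking the transfected receptor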
Procedure: as §1

[5] = target: T2, human GIP receptor (human, UniProt P48546 22-466); assay: 125I-hGIP competition binding, COS-7 cells expressing hGIPR;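 also: nonspecific binding taken as radioligand bound by untransfected cells, binding buffer with or without 2% HSA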
T2 construct: whole, on cells; also called hGIPR
T2 sequence (looked up): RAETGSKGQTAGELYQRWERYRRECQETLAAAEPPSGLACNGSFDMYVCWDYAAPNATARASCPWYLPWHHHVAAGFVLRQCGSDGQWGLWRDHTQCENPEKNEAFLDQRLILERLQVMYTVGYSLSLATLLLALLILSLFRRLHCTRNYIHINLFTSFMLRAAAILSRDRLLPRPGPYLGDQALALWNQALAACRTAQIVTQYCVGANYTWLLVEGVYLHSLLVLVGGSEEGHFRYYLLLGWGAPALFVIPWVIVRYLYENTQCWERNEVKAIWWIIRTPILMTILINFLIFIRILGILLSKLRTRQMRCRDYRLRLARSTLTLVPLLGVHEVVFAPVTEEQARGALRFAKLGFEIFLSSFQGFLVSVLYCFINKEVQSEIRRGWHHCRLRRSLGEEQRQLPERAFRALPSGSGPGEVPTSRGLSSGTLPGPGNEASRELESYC
Procedure: as §1

[6] = target: T2, human GIP receptor; assay: 125I-hGIP competition binding, COS-7/hGIPR, 2% HSA;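 also: nonspecific binding defined as radioligand binding to untransfected cells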
Procedure: as §1

[7] = target: T2, human GIP receptor; assay: 125I-hGIP competition binding, COS-7/hGIPR, 0.1% casein;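 also: nonspecific binding defined as radioligand binding measured on untransfected cells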
Procedure: as §1

[8] = target: T2, human GIP receptor; assay: cell-based or functional assay; remark: listed apart in the source
[9] = target: T2, human GIP receptor; assay: IC50 with 2% HSA over IC50 with 0.1% casein, 125I-hGIP competition, COS-7/hGIPR
Procedure: as §1

For TFISDYSIAMDKIHQQDFVNWLLAQK-NH2 (Not lipidated) [hGIP(5-30)NH2], the Ki [1] was 6.7 nM, the “cAMP accumulation IC50” value [2] was 27.5 nM and the “cAMP accumulation logIC50” value [2] was -7.56 log(M). For the same binder, the “Fold (Ki + HSA / Ki - HSA)” value [3] was 1 fold and the Ki [4] was 6.3 nM.

B1: AT168 [hGIP(5-30)NH2[F6K]-C16diacid/6] (peptide)
peptide: TKISDYSIAMDKIHQQDFVNWLLAQK
modifications: C16-diacid (1,16-hexadecanedioic acid) on Lys at position 6 in GIP numbering (residue 2 of the entry); C-terminal amide
B1 was tested, and the Ki [1] was 97.7 nM, the “cAMP accumulation Fold (fold change from GIP(5-30)NH2)” value [2] was 5.3 fold and the “cAMP accumulation IC50” value [2] was 148 nM. For the same binder, the “cAMP accumulation logIC50” value [2] was -6.83 log(M), the “Fold (Ki + HSA / Ki - HSA)” value [3] was 2.3 fold and the Ki [4] was 41.3 nM.

B2: AT156 [hGIP(5-30)NH2[H18K]-C16diacid/18] (peptide)
peptide: TFISDYSIAMDKIK(C16 diacid)QQDFVNWLLAQK-NH2
modifications: N-terminus assumed
SMILES: CC[C@H](C)[C@H](NC(=O)[C@H](CO)NC(=O)[C@H](Cc1ccc(O)cc1)NC(=O)[C@H](CC(=O)O)NC(=O)[C@H](CO)NC(=O)[C@@H](NC(=O)[C@H](Cc1ccccc1)NC(=O)[C@@H](N)[C@@H](C)O)[C@@H](C)CC)C(=O)N[C@@H](C)C(=O)N[C@@H](CCSC)C(=O)N[C@@H](CC(=O)O)C(=O)N[C@@H](CCCCN)C(=O)N[C@H](C(=O)N[C@@H](CCCCNC(=O)CCCCCCCCCCCCCCC(=O)O)C(=O)N[C@@H](CCC(N)=O)C(=O)N[C@@H](CCC(N)=O)C(=O)N[C@@H](CC(=O)O)C(=O)N[C@@H](Cc1ccccc1)C(=O)N[C@H](C(=O)N[C@@H](CC(N)=O)C(=O)N[C@@H](Cc1c[nH]c2ccccc12)C(=O)N[C@@H](CC(C)C)C(=O)N[C@@H](CC(C)C)C(=O)N[C@@H](C)C(=O)N[C@@H](CCC(N)=O)C(=O)N[C@@H](CCCCN)C(N)=O)C(C)C)[C@@H](C)CC
In the case of B2, the Ki [1] is reported as 29 nM, the “cAMP accumulation Fold (fold change from GIP(5-30)NH2)” value [2] is reported as 0.9 fold and the “cAMP accumulation IC50” value [2] is reported as 24 nM. The “cAMP accumulation logIC50” value [2] was -7.62 log(M), the “Fold (Ki + HSA / Ki - HSA)” value [3] was 5.8 fold and the Ki [4] was 5 nM.

B3: AT169 [hGIP(5-30)NH2[I7K]-C16diacid/7] (peptide)
peptide: TFK(C16 diacid)SDYSIAMDKIHQQDFVNWLLAQK-NH2
modifications: N-terminus assumed
SMILES: CC[C@H](C)[C@H](NC(=O)[C@H](CO)NC(=O)[C@H](Cc1ccc(O)cc1)NC(=O)[C@H](CC(=O)O)NC(=O)[C@H](CO)NC(=O)[C@H](CCCCNC(=O)CCCCCCCCCCCCCCC(=O)O)NC(=O)[C@H](Cc1ccccc1)NC(=O)[C@@H](N)[C@@H](C)O)C(=O)N[C@@H](C)C(=O)N[C@@H](CCSC)C(=O)N[C@@H](CC(=O)O)C(=O)N[C@@H](CCCCN)C(=O)N[C@H](C(=O)N[C@@H](Cc1c[nH]cn1)C(=O)N[C@@H](CCC(N)=O)C(=O)N[C@@H](CCC(N)=O)C(=O)N[C@@H](CC(=O)O)C(=O)N[C@@H](Cc1ccccc1)C(=O)N[C@H](C(=O)N[C@@H](CC(N)=O)C(=O)N[C@@H](Cc1c[nH]c2ccccc12)C(=O)N[C@@H](CC(C)C)C(=O)N[C@@H](CC(C)C)C(=O)N[C@@H](C)C(=O)N[C@@H](CCC(N)=O)C(=O)N[C@@H](CCCCN)C(N)=O)C(C)C)[C@@H](C)CC
For B3, the Ki [1] was 126 nM, the “cAMP accumulation Fold (fold change from GIP(5-30)NH2)” value [2] was 3 fold and the “cAMP accumulation IC50” value [2] was 81.3 nM. The “cAMP accumulation logIC50” value [2] was -7.09 log(M), the “Fold (Ki + HSA / Ki - HSA)” value [3] was 4.8 fold and the Ki [4] was 26.5 nM.

B4: AT186 [hGIP(5-30)NH2[L26K]-C16diacid/26] (peptide)
peptide: TFISDYSIAMDKIHQQDFVNWK(C16 diacid)LAQK-NH2
modifications: N-terminus assumed
SMILES: CC[C@H](C)[C@H](NC(=O)[C@H](CO)NC(=O)[C@H](Cc1ccc(O)cc1)NC(=O)[C@H](CC(=O)O)NC(=O)[C@H](CO)NC(=O)[C@@H](NC(=O)[C@H](Cc1ccccc1)NC(=O)[C@@H](N)[C@@H](C)O)[C@@H](C)CC)C(=O)N[C@@H](C)C(=O)N[C@@H](CCSC)C(=O)N[C@@H](CC(=O)O)C(=O)N[C@@H](CCCCN)C(=O)N[C@H](C(=O)N[C@@H](Cc1c[nH]cn1)C(=O)N[C@@H](CCC(N)=O)C(=O)N[C@@H](CCC(N)=O)C(=O)N[C@@H](CC(=O)O)C(=O)N[C@@H](Cc1ccccc1)C(=O)N[C@H](C(=O)N[C@@H](CC(N)=O)C(=O)N[C@@H](Cc1c[nH]c2ccccc12)C(=O)N[C@@H](CCCCNC(=O)CCCCCCCCCCCCCCC(=O)O)C(=O)N[C@@H](CC(C)C)C(=O)N[C@@H](C)C(=O)N[C@@H](CCC(N)=O)C(=O)N[C@@H](CCCCN)C(N)=O)C(C)C)[C@@H](C)CC
For B4, the IC50 [5] was 144 nM, the “log IC50” value [5] was -6.8 log M and -6.84 log M and the IC50 [6] was 331 nM. The logIC50 [6] was -6.5 log M, the IC50 [7] was 87.1 nM and the logIC50 [7] was -7.1 log M. The “cAMP agonism, Emax” value [8] was 0, the “cAMP antagonism” value [8] was 79 nM and the “cAMP antagonism, log” value [8] was -7.1 log M. The “Fold change HSA (2%)/Casein (0.1%)” value [9] was 3.8 fold.

B5: AT189 [hGIP(5-30)NH2[Q29K]-C16diacid/29] (peptide)
peptide: TFISDYSIAMDKIHQQDFVNWLLAK(C16 diacid)K-NH2
modifications: N-terminus assumed
SMILES: CC[C@H](C)[C@H](NC(=O)[C@H](CO)NC(=O)[C@H](Cc1ccc(O)cc1)NC(=O)[C@H](CC(=O)O)NC(=O)[C@H](CO)NC(=O)[C@@H](NC(=O)[C@H](Cc1ccccc1)NC(=O)[C@@H](N)[C@@H](C)O)[C@@H](C)CC)C(=O)N[C@@H](C)C(=O)N[C@@H](CCSC)C(=O)N[C@@H](CC(=O)O)C(=O)N[C@@H](CCCCN)C(=O)N[C@H](C(=O)N[C@@H](Cc1c[nH]cn1)C(=O)N[C@@H](CCC(N)=O)C(=O)N[C@@H](CCC(N)=O)C(=O)N[C@@H](CC(=O)O)C(=O)N[C@@H](Cc1ccccc1)C(=O)N[C@H](C(=O)N[C@@H](CC(N)=O)C(=O)N[C@@H](Cc1c[nH]c2ccccc12)C(=O)N[C@@H](CC(C)C)C(=O)N[C@@H](CC(C)C)C(=O)N[C@@H](C)C(=O)N[C@@H](CCCCNC(=O)CCCCCCCCCCCCCCC(=O)O)C(=O)N[C@@H](CCCCN)C(N)=O)C(C)C)[C@@H](C)CC
With B5 the IC50 [5] was 118 nM, the “log IC50” value [5] was -6.9 log M and -6.93 log M and the IC50 [6] was 575 nM. The logIC50 [6] was -6.2 log M, the IC50 [7] was 182 nM and the logIC50 [7] was -6.7 log M. The “cAMP agonism” value [8] was 79 nM, the “cAMP agonism, EC50 (log)” value [8] was -7 log M and -7.1 log M and the “cAMP agonism, Emax” value [8] was 12. For the same binder, the “cAMP antagonism” value [8] was 79 nM, the “cAMP antagonism, log” value [8] was -7.1 log M and the “Fold change HSA (2%)/Casein (0.1%)” value [9] was 3.2 fold.

B6: AT187 [hGIP(5-30)NH2[L27K]-C16diacid/27] (peptide)
peptide: TFISDYSIAMDKIHQQDFVNWLK(C16 diacid)AQK-NH2
modifications: N-terminus assumed
SMILES: CC[C@H](C)[C@H](NC(=O)[C@H](CO)NC(=O)[C@H](Cc1ccc(O)cc1)NC(=O)[C@H](CC(=O)O)NC(=O)[C@H](CO)NC(=O)[C@@H](NC(=O)[C@H](Cc1ccccc1)NC(=O)[C@@H](N)[C@@H](C)O)[C@@H](C)CC)C(=O)N[C@@H](C)C(=O)N[C@@H](CCSC)C(=O)N[C@@H](CC(=O)O)C(=O)N[C@@H](CCCCN)C(=O)N[C@H](C(=O)N[C@@H](Cc1c[nH]cn1)C(=O)N[C@@H](CCC(N)=O)C(=O)N[C@@H](CCC(N)=O)C(=O)N[C@@H](CC(=O)O)C(=O)N[C@@H](Cc1ccccc1)C(=O)N[C@H](C(=O)N[C@@H](CC(N)=O)C(=O)N[C@@H](Cc1c[nH]c2ccccc12)C(=O)N[C@@H](CC(C)C)C(=O)N[C@@H](CCCCNC(=O)CCCCCCCCCCCCCCC(=O)O)C(=O)N[C@@H](C)C(=O)N[C@@H](CCC(N)=O)C(=O)N[C@@H](CCCCN)C(N)=O)C(C)C)[C@@H](C)CC
In the case of B6, the IC50 [5] is reported as 26500 nM, the “log IC50” value [5] is reported as -4.6 log M and -4.58 log M and the IC50 [6] is reported as 676 nM. It also gave a logIC50 [6] of -6.2 log M, an IC50 [7] of 144 nM and a logIC50 [7] of -6.8 log M. The “cAMP agonism” value [8] was 2380 nM, the “cAMP agonism, EC50 (log)” value [8] was -6 log M and -5.6 log M and the “cAMP agonism, Emax” value [8] was 25. The “cAMP antagonism” value [8] was 2380 nM, the “cAMP antagonism, log” value [8] was -5.6 log M and the “Fold change HSA (2%)/Casein (0.1%)” value [9] was 4.7 fold.
